Data published in patent US20160046721A1.

How the values were obtained:
human ER-α36 (human) [1] = target: human ER-α36 (human) (UniProt P03372); experiment: flow cytometry on K562 cells, isotype control, concentration not given
ER-α36 LBD (3T3 Clone#4) = experiment: flow cytometry on 3T3 cells, ER-α36 LBD Clone#4, isotype control at 2.5 µg/ml
human ER-α36 (human) [2] = target: human ER-α36 (human) (UniProt P03372); experiment: flow cytometry on 3T3 cells, ER-α36 Full length Clone#2, isotype control at 2.5 µg/ml
human ER-α36 (human) [3] = target: human ER-α36 (human) (UniProt P03372); experiment: flow cytometry on SK-BR-3 cells, isotype control; lower left panel without sample name, assigned by the order of the samples
human ER-α36 (human) [4] = target: human ER-α36 (human) (UniProt P03372); experiment: flow cytometry on MHCC-97H cells, isotype control; second lower panel without sample name, assigned by peak height against histogram 3 of the overlay
human ER-α36 (human) [5] = target: human ER-α36 (human) (UniProt P03372); experiment: flow cytometry on MCF-7 cells, isotype control; lower left panel, which carries no sample name: assigned by peak height and by the order of the samples
human ER-α36 (human) [6] = target: human ER-α36 (human) (UniProt P03372); experiment: flow cytometry on MHCC-97H cells, isotype control; first lower panel without sample name, assigned by peak height (about 75) against histogram 4 of the overlay

Sequence of human ER-α36 (human) (P03372 other isoform, or with tags, fused parts or gaps): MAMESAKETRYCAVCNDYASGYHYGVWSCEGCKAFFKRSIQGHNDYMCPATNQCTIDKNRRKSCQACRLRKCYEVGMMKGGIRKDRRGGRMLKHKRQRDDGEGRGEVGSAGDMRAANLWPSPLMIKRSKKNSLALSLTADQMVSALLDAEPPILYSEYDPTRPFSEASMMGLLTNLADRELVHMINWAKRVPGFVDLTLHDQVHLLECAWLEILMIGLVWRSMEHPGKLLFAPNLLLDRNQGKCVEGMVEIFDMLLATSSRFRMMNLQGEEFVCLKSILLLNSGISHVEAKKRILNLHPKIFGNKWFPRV
Sequence of ER-α36 LBD (3T3 Clone#4) (single chain, as listed by the source): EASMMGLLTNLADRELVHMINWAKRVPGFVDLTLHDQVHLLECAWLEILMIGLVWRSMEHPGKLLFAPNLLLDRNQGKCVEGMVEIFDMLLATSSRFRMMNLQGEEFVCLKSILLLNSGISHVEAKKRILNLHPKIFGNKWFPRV

Geom. Mean FL1 (human ER-α36 (human) [1]): 24.3
%Gated (region B) (ER-α36 LBD (3T3 Clone#4)): 4.93%
%Gated (region B) (human ER-α36 (human) [2]): 4.86%
Yellow-A subset (percent of cells in the gate) (human ER-α36 (human) [3]): 13.1%
Yellow-A subset (percent of cells in the gate) (human ER-α36 (human) [4]): 5.68%
Yellow-A subset (percent of cells in the gate) (human ER-α36 (human) [5]): 19.9%
Yellow-A subset (percent of cells in the gate) (human ER-α36 (human) [6]): 6.82%
Substance: mouse IgG2b (antibody)
